Reference: US20200138986A1 (FREDAX, published 2020)
Values belong to the binder of their own block, whether it stands above or below them.

What was measured:
[1] = target: T1, human glandular kallikrein 2 (hK2) (human, UniProt P20151 25-261); assay: cell-based or functional assay
[2] = target: T1, human glandular kallikrein 2 (hK2); assay: method not stated (told in the Materials section of Example 10)
[3] = target: T2, free prostate-specific antigen (fPSA) (human, UniProt P07288 25-261); assay: Time-resolved Eu fluorescence immunoassay: coat goat anti-human polyclonal, 5A10-Fab 15 ng/well, Eu-PSA titrated from about 0.15 to 20 ng/well [upper and lower panels]
T2 construct: In the IRMA, fPSA was spiked into female plasma and captured by mAb H117; also called hk3; human kallikrein 3
T2 sequence (P07288 25-261 limits assumed): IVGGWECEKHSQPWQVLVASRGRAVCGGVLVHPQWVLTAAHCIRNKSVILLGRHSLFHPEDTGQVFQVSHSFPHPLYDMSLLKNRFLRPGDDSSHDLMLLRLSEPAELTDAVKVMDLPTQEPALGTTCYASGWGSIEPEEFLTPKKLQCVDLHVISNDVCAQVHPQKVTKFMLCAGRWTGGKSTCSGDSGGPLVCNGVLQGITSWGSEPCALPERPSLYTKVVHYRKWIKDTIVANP

T1 sequence (P20151 25-261 limits assumed): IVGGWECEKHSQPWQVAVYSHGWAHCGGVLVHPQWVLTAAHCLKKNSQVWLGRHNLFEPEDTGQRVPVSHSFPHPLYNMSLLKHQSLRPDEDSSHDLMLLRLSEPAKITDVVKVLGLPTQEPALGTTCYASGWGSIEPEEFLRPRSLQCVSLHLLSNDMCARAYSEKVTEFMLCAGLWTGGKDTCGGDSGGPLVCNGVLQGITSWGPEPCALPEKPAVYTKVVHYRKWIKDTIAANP

tumor uptake in hK2-expressing xenografts (LnCAP) against hK2-negative xenografts (DU145) at 48 hpi [1]: > 3 fold
B1: 111In-CHX-A''-DTPA-11B6 (antibody, V domains shown)
VH: DVQLQESGPGLVKPSQSLSLTCTVTGNSITSDYAWNWIRQFPGNRLEWMGYISYSGSTTYSPSLKSRFSITRDTSKNQFFLQLNSVTPEDTATYFCATGYYYGSGFWGQGTLVTVSS
VL: DIVLTQSPASLAVSLGQRATISCRASESVEYFGTSLMHWYRQKPGQPPKLLIYAASNVESGVPARFSGSGSGTDFSLNIQPVEEDDFSMYFCQQTRKVPYTFGGGTKLEIK
modifications: CHX-A''-DTPA chelator conjugated to the antibody and labelled with 111In; sites not stated

Kd [2]: ~1.2 nM
B2: mAb 11B6 (mouse monoclonal anti-hK2 antibody) (antibody, V domains shown)
VH: DVQLQESGPGLVKPSQSLSLTCTVTGNSITSDYAWNWIRQFPGNRLEWMGYISYSGSTTYSPSLKSRFSITRDTSKNQFFLQLNSVTPEDTATYFCATGYYYGSGFWGQGTLVTVSS
VL: DIVLTQSPASLAVSLGQRATISCRASESVEYFGTSLMHWYRQKPGQPPKLLIYAASNVESGVPARFSGSGSGTDFSLNIQPVEEDDFSMYFCQQTRKVPYTFGGGTKLEIK
notes: Whole mouse monoclonal antibody obtained from the University of Turku; also called m11B6; mouse mAb 11B6

binding result [3]: binds
B3: 5A10-Fab (Fab, V domains shown)
VH: EVQLVESGPGILQPSQTLSLTCSFSGFSLSTTGMGVSWIRQPSGKGLEWLAHLYWDEDKRYNPSLKSRLTISEDSSRNQVFLKITSVGPADSATYYCARKGYYGYFDYWGQGTALTVSS
VL: DIVMTQSQKFMSTSVGDRVSVTCKASQNVNTDVAWYQQKPGQSPKALIFSTSYRSSGVPDRFTGSGSGTDFTLTITNVQSEDLAEYFCQQYSNYPLTFGAGTKVDLN
notes: also called exemplary 5A10-Fab; Fab fragment of anti-PSA antibody 5A10
